The text below walks through data of patent publication US20120204273A1, “COMPOSITIONS RELATING TO A PHOSPHOPROTEIN AND METHODS OF USE” (SANFORD-BURNHAM MEDICAL RESEARCH INSTITUTE, priority 2010, published 2012).

One test concerns CHO-T cells. The test can be described thus: Cell division of CHO-T cells overexpressing HA-CDP138. Type of test: cell-based. The source says:
Large cells bodies with multiple nuclei were formed in HA-tagged CDP138 positive CHO-T cells.
HA-CDP138 positive cell is 3-5 times bigger than HA-negative cells (FIG. 14).

For the next test, the system named is 3T3-L1 adipocytes. The test can be described thus: myc-GLUT4-GFP translocation to the cell surface. Format: cell-based, mouse. Conditions: insulin 100 nM, 30 min. The method, then: FIG. 2, panels A-C show knockdown of CDP138 in 3T3-L1 adipocytes inhibits insulin-stimulated glucose transport (A) and myc-GLUT4-GFP translocation (B), but not endogenous GLUT4 movement to the periphery detected in TIRF zone (C). (A): Differentiated adipocytes at day 5 were transfected with siRNAs against mouse 5730419I09Rik or the scrambled siRNA (Scr) as described earlier (Jiang et al., 2003) for 60 hrs, then serum starved overnight. Cells were then treated with or without insulin (1 nM and 100 nM) for 30 min for the glucose uptake assay, or 15 min for immunoblotting of CDP138, pAkt, Akt and β-actin. Glucose transport data are presented as mean±SD of 4 independent experiments. *P<0.05 vs Scr Insulin (1 nM) group; **P<0.01 vs Scr Insulin (100 nM) group. (B): Day 5 adipocytes were transfected with siRNAs and myc-GLUT4-GFP for 60 hrs and then serum starved overnight. Cells were then treated with insulin (1 nM) for 20 min. Cell surface Myc-GLUT4-GFP was detected with anti-myc monoclonal Ab (9E10) and Alexa Fluor 568-labeled goat anti-mouse IgG in non-permeablized cells. The Myc signal and GFP signal were quantified as previously described (Jiang et al., 2002). Data presented are representative microscopic images and mean±SD of about 160 GFP-positive cells in each group from three independent experiments. **P<0.01 vs Scr Insulin (1 nM) group. […] GLUT4 was detected with a goat anti-GLUT4 Ab and Alexa Fluor 488-conjugated donkey anti-goat Ab in permeabilized cells. Top and middle panels show 100 nm TIRF zone and representative GLUT4 TIRFM images, respectively. Data are mean±SD of 3 independent experiments. **P<0.01 vs Scr Insulin groups.
GLUT4 translocation detection with wide field fluorescence and TIRF microscopy: Both wide field and TIRF microscopy were used to detect myc-GLUT4-GFP translocation to the cell surface as previously described (Jiang et al., 2002) and herein.
To test the effect of RNAi-induced gene specific knockdown of CDP138 or overexpression of CDP138 mutants on GLUT4 translocation, siRNAs or CDP138 constructs were transfected into adipocytes together with myc-GLUT4-GFP by electroporation as previously described (Jiang et al, 2003). […] Cells were washed with cold PBS, fixed with 4% formaldehyde and immunostained. Briefly, for siRNA study, the cell surface Myc-GLUT4-GFP was visualized with mouse anti-Myc Ab (9E10) and AlexaFluoro568-labeled goat anti-mouse secondary Ab (Invitrogen) in PBS containing 1% FBS. After washing, the coverslip were mounted with Prolong antifade reagent (Invitrogen, Eugene Oreg.). Fluorescence microscopy was carried as described below. Then, images were acquired with wide field microscopy as described below. For the study with overexpressed HAtagged CDP138 constructs, the cell surface Myc-GLUT4-GFP was visualized with rabbit anti-Myc Ab (Cell signaling, Inc) and AlexaFluoro568-labeled goat anti-rabbit secondary Ab (InVitrogen) in PBS containing 1% FBS. Cells were further permeabilized with PSB containing 0.5% Tween-20, and HA-tagged protein was detected with a mouse anti-HA epitope primary Ab followed by AlexaFluoro-350-labelled goat anti-mouse IgG. Insulin-induced myc-GLUT4 accumulation (AlexaFluoro-568 signal) within the evanescence excitation field (100 nm from dorsal membrane) in transfected adipocytes was measured with a Nikon Eclipse-Ti microscope equipped with a CoolSNAP HQ2 camera and laser scanning TIRF capacity. Total GLUT4-GFP signals and […] Alexa Fluoro-350 signals were acquired with wide field imaging to identify double-transfected cells. The ratio of myc-GLUT4 signal in the TIRF zone to the total Epi-GFP signal in wide field was used as a measure of GLUT4 translocation to the cell surface.
Image Analysis and Quantification: TIRF and wide field fluorescence microscopy were performed using a Nikon inverted microscope (Melville, N.Y.) with a cooled charge-coupled device camera. […]

B1: HA-CDP138-WT: full-length human KIAA0528 (CDP138) tagged with 3HA epitope at the N-terminus, pCMV5 vector (protein)
chain: MPGKLKVKIVAGRHLPVMDRASDLTDAFVEVKFGNTTFKTDVYLKSLNPQWNSEWFKFEVDDEDLQDEPLQITVLDHDTYSANDAIGKVYIDIDPLLYSEAATVISGWFPIYDTIHGIRGEINVVVKVDLFNDLNRFRQSSCGVKFFCTTSIPKCYRAVIIHGFVEELVVNEDPEYQWIDRIRTPRASNEARQRLISLMSGELQRKIGLKVLEMRGNAVVGYLQCFDLEGESGLVVRAIGTACTLDKLSSPAAFLPACNSPSKEMKEIPFNEDPNPNTHSSGPSTPLKNQTYSFSPSKSYSRQSSSSDTDLSLTPKTGMGSGSAGKEGGPFKALLRQQTQSALEQREFPFFTLTAFPPGFLVHVGGVVSARSVKLLDRIHNPDEPETRDAWWAEIRQEIKSHAKALGCHAVVGYSESTSICEEVCILSASGTAAVLNPRFLQDGTVEGCLEQRLEENLPTRCGFCHIPYDELNMPFPAHLTYCYNCRKQKVPDVLFTTIDLPTDATVIGKGCLIQARLCRLKKKAQAEANATAISNLLPFMEYEVHTQLMNKLKLKGMNALFGLRIQITVGENMLMGLASATGVYLAALPTPGGIQIAGKTPNDGSYEQHISHMQKKINDTIAKNKELYEINPPEISEEIIGSPIPEPRQRSRLLRSQSESSDEVTELDLSHGKKDAFVLEIDDTDAMEDVHSLLTDVPPPSGFYSCNTEIMPGINNWTSEIQMFTSVRVIRLSSLNLTNQALNKNFNDLCENLLKSLYFKLRSMIPCCLCHVNFTVSLPEDELIQVTVTAVAITFDKNQALQTTKTPVEKSLQRASTDNEELLQFPLELCSDSLPSHPFPPAKAMTVEKASPVGDGNFRNRSAPPCANSTVGVVKMTPLSFIPGAKITKYLGIINMFFIRETTSLREEGGVSGFLHAFIAEVFAMVRAHVAALGGNAVVSYIMKQCVFMENPNKNQAQCLINVSGDAVVFVRESDLEVVSSQQPTTNCQSSCTEGEVTT
As to B1, the “size of positive cells relative to HA-negative cells” value with CHO-T cells is 3-5 times. In the test with CHO-T cells (three different experiments), the “positive cells with big multiple nuclei” value is given as “about 24.6%”. Further, the “effect of overexpression on insulin-stimulated myc-GLUT4-GFP translocation (TIRF myc / Epi GFP)” value in the test with 3T3-L1 adipocytes was “did not significantly alter”.
